Here are results for six molecules from PMC3959648, “Screening protein – Single stranded RNA complexes by NMR spectroscopy for structure determination☆”.

What all share (conditions): protein: recombinant; tags: N-terminal His tag removed by TEV
Series [1] addresses T1, T-STAR KH (UniProt O75525 50-160).
T1 sequence: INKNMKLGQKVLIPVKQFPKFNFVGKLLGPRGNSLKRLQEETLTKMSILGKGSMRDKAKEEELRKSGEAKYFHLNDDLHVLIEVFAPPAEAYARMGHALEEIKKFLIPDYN
Briefly: NMR 15N-1H HSQC CSP; fast exchange; T-STAR KH: 10 mM Tris-HCl pH 7 (also given as pH 6.5, 50 mM NaCl, 30 C); Sam68 KH: 20 mM sodium phosphate pH 7.0, 50 mM NaCl, 20 C; about 0.2 mM protein, protein:RNA 1:0.5 and 1:1.

A further series addresses T2, T-STAR KH-QUA2 (UniProt O75525 50-183).
T2 sequence: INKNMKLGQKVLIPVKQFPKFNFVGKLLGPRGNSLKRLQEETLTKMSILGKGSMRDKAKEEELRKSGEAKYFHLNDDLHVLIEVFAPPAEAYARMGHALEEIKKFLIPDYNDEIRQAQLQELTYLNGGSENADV
Briefly: NMR 15N-1H HSQC CSP; T-STAR KH: 10 mM Tris-HCl pH 7 (also given as pH 6.5, 50 mM NaCl, 30 C); Sam68 KH: 20 mM sodium phosphate pH 7.0, 50 mM NaCl, 20 C; about 0.2 mM protein, protein:RNA 1:0.5 and 1:1.

Series [2] has as its target T3, Sam68 KH (UniProt Q07666 150-260). The description is as above.
Series [3] has as its target T1, T-STAR KH. Briefly: NMR TOCSY; 100% D2O; chemical exchange, possibly multiple registers; T-STAR KH: 10 mM Tris-HCl pH 7 (also given as pH 6.5, 50 mM NaCl, 30 C); Sam68 KH: 20 mM sodium phosphate pH 7.0, 50 mM NaCl, 20 C; about 0.2 mM protein, protein:RNA 1:0.5 and 1:1.
Series [4] deals with T1, T-STAR KH. Briefly: NMR 15N-1H HSQC CSP; fast to intermediate exchange; higher affinity than AAAUAA; T-STAR KH: 10 mM Tris-HCl pH 7 (also given as pH 6.5, 50 mM NaCl, 30 C); Sam68 KH: 20 mM sodium phosphate pH 7.0, 50 mM NaCl, 20 C; about 0.2 mM protein, protein:RNA 1:0.5 and 1:1.
Series [5] addresses T3, Sam68 KH. Briefly: NMR 15N-1H HSQC CSP; slow exchange; strong affinity; T-STAR KH: 10 mM Tris-HCl pH 7 (also given as pH 6.5, 50 mM NaCl, 30 C); Sam68 KH: 20 mM sodium phosphate pH 7.0, 50 mM NaCl, 20 C; about 0.2 mM protein, protein:RNA 1:0.5 and 1:1.

T3 sequence (Q07666 150-260): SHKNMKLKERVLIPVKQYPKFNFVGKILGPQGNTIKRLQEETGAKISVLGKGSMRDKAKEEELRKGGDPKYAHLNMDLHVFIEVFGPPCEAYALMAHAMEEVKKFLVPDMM

AAAUAA (ssRNA): the binding result with T-STAR KH [1] and with T-STAR KH-QUA2 was “binds” throughout.

For the molecule UUUUUU (ssRNA) [UUUUUU (polyU 6mer)], the binding result in the series with Sam68 KH [2] is reported as “no binding”.

Turning to UAAAUAAUU (ssRNA), the binding result in the series with T-STAR KH [3] was “binds”.

Regarding AAAAAA (ssRNA) [AAAAAA (polyA 6mer)], the binding result with T-STAR KH [4] is listed as “binds”.

With AUUAAA (ssRNA), the binding result with Sam68 KH [5] was “binds”.

Regarding UAAAAUUUUU (ssRNA), in the series with T-STAR KH [3], the binding result was “binds”.
